According to patent publication US20120208744A1, “ANTI-MICROBIAL AGENTS AND COMPOSITIONS AND METHODS OF PRODUCTION AND USE THEREOF” (The Penn State Research Foundation, priority 2011, published 2012):
Numbering of substitutions follows the chain as printed. Numbers in names are those of the source.

B1: Colicin B: TonB-dependent colicin; toxin that enters and kills E. coli via the TonB system; standard colicin preparation (protein, UniProt P05819 2-511, looked up)
Colicin-B: SDNEGSVPTEGIDYGDTMVVWPSTGRIPGGDVKPGGSSGLAPSMPPGWGDYSPQGIALVQSVLFPGIIRRIILDKELEEGDWSGWSVSVHSPWGNEKVSAARTVLENGLRGGLPEPSRPAAVSFARLEPASGNEQKIIRLMVTQQLEQVTDIPASQLPAAGNNVPVKYRLTDLMQNGTQYMAIIGGIPMTVPVVDAVPVPDRSRPGTNIKDVYSAPVSPNLPDLVLSVGQMNTPVRSNPEIQEDGVISETGNYVEAGYTMSSNNHDVIVRFPEGSGVSPLYISAVEILDSNSLSQRQEAENNAKDDFRVKKEQENDEKTVLTKTSEVIISVGDKVGEYLGDKYKALSREIAENINNFQGKTIRSYDDAMSSINKLMANPSLKINATDKEAIVNAWKAFNAEDMGNKFAALGKTFKAADYAIKANNIREKSIEGYQTGNWGPLMLEVESWVISGMASAVALSLFSLTLGSALIAFGLSATVVGFVGVVIAGAIGAFIDDKFVDELNHKIIK
B2: ExbD I102C: ExbD cysteine substitution I102C (pKP1010) (protein)
chain: MAMHLNENLDDNGEMHDINVTPFIDVMLVLLIIFMVAAPLAIVDVKVNLPASTSTPQPRPEKPVYLSVKADNSMFIGNDPVTDETMITALNALTEGKKDITCFFRADKTVDYETLMKVMDTLHQAGYLKIGLVGEETAKAK
B3: ExbD G96C: ExbD cysteine substitution G96C (pKP1004) (protein)
chain: B2 chain with G96C, C102I
B4: ExbD M116C: ExbD cysteine substitution M116C (pKP1024) (protein)
chain: B2 chain with C102I, M116C
B5: ExbD K108C: ExbD cysteine substitution K108C (pKP1016) (protein)
chain: B2 chain with C102I, K108C
B6: ExbD Y112C: ExbD cysteine substitution Y112C (pKP1020) (protein)
chain: B2 chain with C102I, Y112C
B7: Colicin Ia: TonB-dependent colicin; standard colicin preparation used in spot titers (protein, UniProt P06716 1-626, looked up)
Colicin-Ia: MSDPVRITNPGAESLGYDSDGHEIMAVDIYVNPPRVDVFHGTPPAWSSFGNKTIWGGNEWVDDSPTRSDIEKRDKEITAYKNTLSAQQKENENKRTEAGKRLSAAIAAREKDENTLKTLRAGNADAADITRQEFRLLQAELREYGFRTEIAGYDALRLHTESRMLFADADSLRISPREARSLIEQAEKRQKDAQNADKKAADMLAEYERRKGILDTRLSELEKNGGAALAVLDAQQARLLGQQTRNDRAISEARNKLSSVTESLNTARNALTRAEQQLTQQKNTPDGKTIVSPEKFPGRSSTNHSIVVSGDPRFAGTIKITTSAVIDNRANLNYLLSHSGLDYKRNILNDRNPVVTEDVEGDKKIYNAEVAEWDKLRQRLLDARNKITSAESAVNSARNNLSARTNEQKHANDALNALLKEKENIRNQLSGINQKIAEEKRKQDELKATKDAINFTTEFLKSVSEKYGAKAEQLAREMAGQAKGKKIRNVEEALKTYEKYRADINKKINAKDRAAIAAALESVKLSDISSNLNRFSRGLGYAGKFTSLADWITEFGKAVRTENWRPLFVKTETIIAGNAATALVALVFSILTGSALGIIGYGLLMAVTGALIDESLVEKANKFWGI
B8: Colicin M: TonB-dependent colicin; standard colicin preparation used in spot titers (protein, UniProt P05820 1-271, looked up)
Colicin-M: METLTVHAPSPSTNLPSYGNGAFSLSAPHVPGAGPLLVQVVYSFFQSPNMCLQALTQLEDYIKKHGASNPLTLQIISTNIGYFCNADRNLVLHPGISVYDAYHFAKPAPSQYDYRSMNMKQMSGNVTTPIVALAHYLWGNGAERSVNIANIGLKISPMKINQIKDIIKSGVVGTFPVSTKFTHATGDYNVITGAYLGNITLKTEGTLTISANGSWTYNGVVRSYDDKYDFNASTHRGIIGESLTRLGAMFSGKEYQILLPGEIHIKESGKR

Assays:
E. coli = assay: Spot titer assay (sensitivity to TonB-dependent colicins and bacteriophage); type: cell-based, Escherichia coli; conditions: three platings
Description: Activity assays: Spot titer assays were performed. Initial rates of [^55Fe]-ferrichrome uptake were determined.
Spot titers, which are capable of detecting very low levels of TonB activity, measure sensitivity to colicins and bacteriophage that enter and subsequently kill E. coli via the TonB system. […] Consistent with their insensitivity to phage and colicins, the other 13 deletion variants supported no iron transport.

[1] = system: ferrichrome-mediated iron transport; assay: [55Fe]-ferrichrome uptake, ExbD cys substitutions, with or without CuoP treatment; type: cell-based, Escherichia coli; conditions: for activity: initial rate of ferrichrome-mediated iron transport relative to wild-type plasmid-encoded ExbD: non-reducing conditions, substitution expressed to native ExbD levels, strain RA1045
Description: Since CuoP treatment catalyzed almost 100% dimer formation for some of the cys substitutions, attempts were made to determine activity of the dimeric form. […] The amount of CuoP was reduced 10-fold to 0.03 mM and cells had to be suspended in fully supplemented M9 medium as described in Experimental Procedures.
Activity assays. Initial rates of [^55Fe]-ferrichrome uptake were determined. For assays where cultures were treated with copper-(1,10-phenanthroline)3, harvested cells were pelleted, resuspended in 1×M9 supplemented as described above (no sodium propionate added), and treated with an equal volume 0.06 mM CuoP ([final] 0.03 mM) or 0.5 mM sodium phosphate buffer, pH 7.4 (buffer only) for 5 min, at 37° C. with aeration. Cells were pelleted, and the standard iron transport protocol was followed starting with resuspension in the assay medium.
In all assays the CuoP solution was removed and assays carried out in identical media, but the medium present during the 5 min CuoP treatment was important and differentially affected activity of a wild-type strain.

[2] = strain RA1017 (ΔExbBD, ΔTolQRA)
[3] = strain RA1017/pKP724 (ExbB, ExbDΔ132-141)
[4] = strain RA1017/pKP752 (ExbB, ExbDΔ102-111)
[5] = strain RA1017/pKP753 (ExbB, ExbDΔ92-101)
[6] = strain RA1017/pKP754 (ExbB, ExbDΔ82-91)
[7] = strain RA1017/pKP755 (ExbB, ExbDΔ72-81)
[8] = strain RA1017/pKP756 (ExbB, ExbDΔ62-71)
[9] = strain RA1017/pKP757 (ExbB, ExbDΔ52-61)
[10] = strain RA1017/pKP758 (ExbB, ExbDΔ32-41)
[11] = strain RA1017/pKP759 (ExbB, ExbDΔ22-31)
[12] = strain RA1017/pKP760 (ExbB, ExbDΔ12-21)
[13] = strain RA1017/pKP762 (ExbB, ExbDΔ42-51)
[14] = strain RA1017/pKP763 (ExbB, ExbDΔ112-121)
[15] = strain RA1017/pKP764 (ExbB, ExbDΔ122-131)
[16] = CuoP-treated (0.03 mM, 5 min, supplemented M9)
[17] = overexpressed ExbD cys substitution

Molecule	Susceptibility: highest five-fold dilution of a standard colicin preparation that provided an evident zone of clearing on a cell lawn (E. coli; [2])	Susceptibility: highest five-fold dilution of a standard colicin preparation that provided an evident zone of clearing on a cell lawn (E. coli; [3])	Susceptibility: highest five-fold dilution of a standard colicin preparation that provided an evident zone of clearing on a cell lawn (E. coli; [4])	Susceptibility: highest five-fold dilution of a standard colicin preparation that provided an evident zone of clearing on a cell lawn (E. coli; [5])	Susceptibility: highest five-fold dilution of a standard colicin preparation that provided an evident zone of clearing on a cell lawn (E. coli; [6])	Susceptibility: highest five-fold dilution of a standard colicin preparation that provided an evident zone of clearing on a cell lawn (E. coli; [7])	Susceptibility: highest five-fold dilution of a standard colicin preparation that provided an evident zone of clearing on a cell lawn (E. coli; [8])	Susceptibility: highest five-fold dilution of a standard colicin preparation that provided an evident zone of clearing on a cell lawn (E. coli; [9])	Susceptibility: highest five-fold dilution of a standard colicin preparation that provided an evident zone of clearing on a cell lawn (E. coli; [10])	Susceptibility: highest five-fold dilution of a standard colicin preparation that provided an evident zone of clearing on a cell lawn (E. coli; [11])	Susceptibility: highest five-fold dilution of a standard colicin preparation that provided an evident zone of clearing on a cell lawn (E. coli; [12])	Susceptibility: highest five-fold dilution of a standard colicin preparation that provided an evident zone of clearing on a cell lawn (E. coli; [13])	Susceptibility: highest five-fold dilution of a standard colicin preparation that provided an evident zone of clearing on a cell lawn (E. coli; [14])	Susceptibility: highest five-fold dilution of a standard colicin preparation that provided an evident zone of clearing on a cell lawn (E. coli; [15])	activity: initial rate of ferrichrome-mediated iron transport relative to wild-type plasmid-encoded ExbD [1] [%]	activity: iron transport relative to wild-type ExbD [1, 16]	activity: iron transport relative to wild-type ExbD ([1]; buffer only treated samples)	activity: iron transport relative to wild-type ExbD [1, 17] [%]
B1	T, T, T	T, T, T	T, T, T	T, T, T	T, T, T	T, T, T	T, T, T	T, T, T	T, T, T	T, T, T	T, T, T	T, T, T	T, T, T	T, T, T	–	–	–	–
B2	–	–	–	–	–	–	–	–	–	–	–	–	–	–	80	–	–	–
B3	–	–	–	–	–	–	–	–	–	–	–	–	–	–	85	–	–	–
B4	–	–	–	–	–	–	–	–	–	–	–	–	–	–	–	20%	about 90%	–
B5	–	–	–	–	–	–	–	–	–	–	–	–	–	–	~110	at least 70%	–	110
B6	–	–	–	–	–	–	–	–	–	–	–	–	–	–	–	5%	about 90%	90
B7	T, T, T	T, T, T	T, T, T	T, T, T	T, T, T	T, T, T	T, T, T	T, T, T	T, T, T	T, T, T	T, T, T	T, T, T	T, T, T	T, T, T	–	–	–	–
B8	T, T, T	T, T, T	T, T, T	T, T, T	T, T, T	T, T, T	T, T, T	T, T, T	T, T, T	T, T, T	T, T, T	T, T, T	T, T, T	T, T, T	–	–	–	–
